What was measured:
[1] = tested on: transgenic T1 soybean events; test: Field trials of T1 soybean events, leaf damage eight days after application; assay type: in vivo
Method: Soybean plants expressing an HPPD inhibitor tolerant polypeptide of the present invention alone, or along with a gene conferring tolerance to glyphosate and/or a gene conferring tolerance to glufosinate or having a “plant expression cassette”, which includes only an HPPD inhibitor tolerant polypeptide of the present invention, were tested for tolerance to different HPPD inhibitor herbicide chemical classes. The transgenic plants were routinely analyzed for the expression and presence of the transgenes using the ELISA protein detection method (see detailed description under item D and H). Only plants recovering in the selection media and having a detectable HPPD transgene protein expression were regenerated, transferred to the greenhouse and used at V2-V4 growth stage for the HPPD inhibitor herbicide tolerance analysis of the T0 soybean events in the greenhouse (Example 6). The chemical formulation with HPPD inhibitor herbicides was supplemented with ammonium sulfate and methyl ester rapeseed oil. Herbicide tolerance evaluation was taken 5-21 days after spraying. The best performing independent T0 soybean events were selfed to produce T1 soybean seeds. In the field trails, the advanced T1 soybean seeds were planted and treated with either 210 g/ha of isoxaflutole or 150 g/ha of Cmpd.
In Table 10, the frequency of the soybean events showing a good tolerance, i.e. equal or less than 15% damage of the total leaf area are summarized

[2] = tested on: transgenic soybean T0 events; test: Greenhouse spray test of T0 soybean events, herbicide tolerance rating 0-3; assay type: in vivo; conditions: Cmpd. 1 300 g AI/ha, five days
Method: Tolerant green shoots were transferred to rooting media or grafted. Rooted plantlets were transferred to the greenhouse after an acclimation period. Plants containing the transgene were then sprayed with HPPD inhibitor herbicides, as for example with mesotrione at a rate of 300-600 g AI/ha, or with Cmpd. […] Five to ten days after the application, the symptoms due to the application of the herbicide were evaluated and compared to the symptoms observed on wild-type plants under the same conditions.
For example, T0 soybean plants having a “plant expression cassette”, which includes an HPPD inhibitor tolerant HPPD polypeptide of the present invention, were tested towards the tolerance of Cmpd. 1.
Prior greenhouse trials with the transgenic plants, soybean transformants were routinely analyzed for the expression and presence of the transgenes using the ELISA protein detection method (see detailed description under item D and H). Only plants recovering in the selection media and having a detectable HPPD transgene protein expression were used for the herbicide tolerance analysis. A DeVries Tracker Sprayer was calibrated prior to each spraying. The chemical formulation used for Cmpd. 1 was supplemented with ammonium sulfate and methylated rape seed oil. Spray tests were conducted with a concentration, which equals to 300 grams AI per hectare (300 g AI/ha). Tolerance was evaluated 5 days after spraying. […] A rating of “3” was assigned to plants showing good tolerance, i.e. less than 10% of the leaf area from the top three trifoliate leaves showing chlorosis or only very slight bleaching.

[3] = 150 g/ha Cmpd. 1, stage V2-V4, eight days after application
[4] = 210 g/ha isoxaflutole, stage V2-V4, eight days after application

CS(=O)(=O)c1cc(C(F)(F)F)ccc1C(=O)c1cnoc1C1CC1 [isoxaflutole, (5-cyclopropyl-4-isoxazolyl)[2-(methylsulfonyl)-4-(trifluoromethyl)phenyl]methanone, reference compound]
leaf damage ([1]; wild-type or segregated T1 soybean plants without tolerant polypeptide, 210 g/ha isoxaflutole or 150 g/ha Cmpd. 1, eight days): 100%

B1: SEQ ID NO:2 (protein)
chain: MADLYENPMGLMGFEFIEFASPTPGTLEPIFEIMGFTKVATHRSKNVHLYRQGEINLILNNEPNSIASYFAAEHGPSVCGMAFRVKDSQKAYNRALELGAQPIHIDTGPMELNLPAIKGIGGAPLYLIDRFGEGSSIYDIDFVYLEGVERNPVGAGLKVIDHLTHNVYRGRMVYWANFYEKLFNFREARYFDIKGEYTGLTSKAMSAPDGMIRIPLNEESSKGAGQIEEFLMQFNGEGIQHVAFLTDDLVKTWDALKKIGMRFMTAPPDTYYEMLEGRLPDHGEPVDQLQARGILLDGSSVEGDKRLLLQIFSETLMGPVFFEFIQRKGDDGFGPWNFAQLFESIERDQVRRGVLTAD
modifications: mutant HPPD polypeptide
proportion of T0 soybean events with less than 10% leaf damage [2]: 54%
Percentage events rated “2 & 3” ([2]; less than 50% leaf damage): 83%

B2: SEQ ID NO: 16: mutant HPPD polypeptide: P268S T270S E335P G336D N337S A340V I345K (protein)
chain: MADLYENPMGLMGFEFIEFASPTPGTLEPIFEIMGFTKVATHRSKNVHLYRQGEINLILNNEPNSIASYFAAEHGPSVCGMAFRVKDSQKAYNRALELGAQPIHIDTGPMELNLPAIKGIGGAPLYLIDRFGEGSSIYDIDFVYLEGVERNPVGAGLKVIDHLTHNVYRGRMVYWANFYEKLFNFREARYFDIKGEYTGLTSKAMSAPDGMIRIPLNEESSKGAGQIEEFLMQFNGEGIQHVAFLTDDLVKTWDALKKIGMRFMTAPSDSYYEMLEGRLPDHGEPVDQLQARGILLDGSSVEGDKRLLLQIFSETLMGPVFFEFIQRKGDDGFGPDSFKVLFESKERDQVRRGVLTAD
modifications: mutant HPPD polypeptide
notes: mutant HPPD polypeptide: P268S T270S E335P G336D N337S A340V I345K
Frequency in the population (events with ≤15% leaf damage) [1, 3]: 95%
Independent events with ≤15% leaf damage after spray [1, 3]: 19
Frequency in the population (events with ≤15% leaf damage) [1, 4]: 95%
Independent events with ≤15% leaf damage after spray [1, 4]: 19
